Measurements published in US20150139990A1 (DAINIPPON SUMITOMO PHARMA, published 2015).
Residue numbers refer to the chain shown, from its start. Numbers in names are those of the source.

Key:
Experiment in all cases: ELISA
human CD81 mutant G158S = target: T1, human CD81 mutant G158S (human, UniProt P60033 1-236, limits assumed)
T1 construct: as m30; not shown: C-terminal V5 and 6xHis tags
T1 sequence: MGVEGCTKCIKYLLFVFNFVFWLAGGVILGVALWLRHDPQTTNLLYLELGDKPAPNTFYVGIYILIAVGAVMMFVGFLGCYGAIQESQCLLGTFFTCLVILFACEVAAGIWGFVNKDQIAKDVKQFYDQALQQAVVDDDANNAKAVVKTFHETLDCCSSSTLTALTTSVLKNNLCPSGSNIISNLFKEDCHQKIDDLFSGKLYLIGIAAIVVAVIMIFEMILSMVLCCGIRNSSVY

human CD81 mutant I194A = target: T2, human CD81 mutant I194A (human, UniProt P60033 1-236, limits assumed)
T2 construct: as m30; not shown: C-terminal V5 and 6xHis tags
T2 sequence: T1 sequence with S158G, I194A

human CD81 mutant H151A = target: T3, human CD81 mutant H151A (human, UniProt P60033 1-236, limits assumed)
T3 construct: as m30; not shown: C-terminal V5 and 6xHis tags
T3 sequence: T1 sequence with H151A, S158G

human CD81 mutant T163A = target: T4, human CD81 mutant T163A (human, UniProt P60033 1-236, limits assumed)
T4 construct: as m30; not shown: C-terminal V5 and 6xHis tags
T4 sequence: T1 sequence with S158G, T163A

human CD81 mutant D137A = target: T5, human CD81 mutant D137A (human, UniProt P60033 1-236, limits assumed)
T5 construct: as m30; not shown: C-terminal V5 and 6xHis tags
T5 sequence: T1 sequence with D137A, S158G

human CD81 mutant A164T = target: T6, human CD81 mutant A164T (human, UniProt P60033 1-236, limits assumed)
T6 construct: as m30; not shown: C-terminal V5 and 6xHis tags
T6 sequence: T1 sequence with S158G, A164T

human CD81 mutant V135A = target: T7, human CD81 mutant V135A (human, UniProt P60033 1-236, limits assumed)
T7 construct: as m30; not shown: C-terminal V5 and 6xHis tags
T7 sequence: T1 sequence with V135A, S158G

human CD81 mutant L170A = target: T8, human CD81 mutant L170A (human, UniProt P60033 1-236, limits assumed)
T8 construct: as m30; not shown: C-terminal V5 and 6xHis tags
T8 sequence: T1 sequence with S158G, L170A

Measured: relative binding affinity

B1: 002-A07 IgG4 antibody (antibody)
heavy: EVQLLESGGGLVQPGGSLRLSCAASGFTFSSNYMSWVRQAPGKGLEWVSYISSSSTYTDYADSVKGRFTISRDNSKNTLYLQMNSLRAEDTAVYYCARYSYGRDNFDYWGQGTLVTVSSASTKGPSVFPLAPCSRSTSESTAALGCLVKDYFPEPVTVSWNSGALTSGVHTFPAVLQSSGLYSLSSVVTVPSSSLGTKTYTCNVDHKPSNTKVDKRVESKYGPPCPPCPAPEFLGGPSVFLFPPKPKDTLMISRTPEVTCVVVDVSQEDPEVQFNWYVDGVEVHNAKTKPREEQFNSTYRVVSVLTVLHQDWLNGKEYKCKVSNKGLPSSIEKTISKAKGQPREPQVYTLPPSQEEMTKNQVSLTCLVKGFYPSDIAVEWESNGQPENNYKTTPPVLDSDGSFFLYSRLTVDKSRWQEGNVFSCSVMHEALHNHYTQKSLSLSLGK
light: QSVLTQPPSASGTPGQRVTISCTGSTSNIGAGYDTHWYQQLPGTAPKLLIYGNSNRPSGVPDRFSGSKSGTSASLAISGLRSEDEADYYCQSYDTNLSVWVFGGGTKLTVLGQPKAAPSVTLFPPSSEELQANKATLVCLISDFYPGAVTVAWKADSSPVKAGVETTTPSKQSNNKYAASSYLSLTPEQWKSHRSYSCQVTHEGSTVEKTVAPTECS
notes: human IgG4 S228P, lambda light chain
not listed: human CD81 mutant L170A
< 20%: all other assays above

B2: 002-A07 N113G (antibody, human IgG4 S228P, lambda, V domains shown)
VH: EVQLLESGGGLVQPGGSLRLSCAASGFTFSSNYMSWVRQAPGKGLEWVSYISSSSTYTDYADSVKGRFTISRDNSKNTLYLQMNSLRAEDTAVYYCARYSYGRDNFDYWGQGTLVTVSS
VL: QSVLTQPPSASGTPGQRVTISCTGSTSNIGAGYDTHWYQQLPGTAPKLLIYGNSNRPSGVPDRFSGSKSGTSASLAISGLRSEDEADYYCQSYDTGLSVWVFGGGTKLTVLG
notes: IgG4 S228P; glycosylation site mutant of 002-A07 VL
< 20%: all assays above

B3: 003-D07 (antibody, human IgG4 S228P, lambda, V domains shown)
VH: B2 VH with G102D
VL: B2 VL with P8F, Q40H, G96N
notes: IgG4 S228P
< 20%: human CD81 mutant G158S | human CD81 mutant I194A | human CD81 mutant D137A | human CD81 mutant A164T | human CD81 mutant V135A

B4: 002-A07 N113S (antibody, human IgG4 S228P, lambda, V domains shown)
VH: B2 VH
VL: B2 VL with G96S
notes: as for B2
< 20%: all assays above

B5: 002-A07 S115G (antibody, human IgG4 S228P, lambda, V domains shown)
VH: B2 VH
VL: B2 VL with G96N, S98G
notes: as for B2
not listed: human CD81 mutant H151A | human CD81 mutant L170A
< 20%: all other assays above

B6: 002-A07 S115A (antibody, human IgG4 S228P, lambda, V domains shown)
VH: B2 VH
VL: B2 VL with G96N, S98A
notes: as for B2
< 20%: all assays above

B7: 002-A07 N113Q (antibody, human IgG4 S228P, lambda, V domains shown)
VH: B2 VH
VL: B2 VL with G96Q
notes: as for B2
not listed: human CD81 mutant L170A
< 20%: all other assays above
